The chains are these.
B1: V5-Par6A (wild type) [not stated] / HA-Cdc42(G12V) [not stated] (parent complex)
chain 1: MARPQRTPARSPDSIVEVKSKFDAEFRRFALPRASVSGFQEFSRLLRAVHQIPGLDVLLGYTDAHGDLLPLTNDDSLHRALASGPPPLRLLVQKRAEADSSGLAFASNSLQRRKKGLLLRPVAPLRTRPPLLISLPQDFRQVSSVIDVDLLPETHRRVRLHKHGSDRPLGFYIRDGMSVRVAPQGLERVPGIFISRLVRGGLAESTGLLAVSDEILEVNGIEVAGKTLDQVTDMMVANSHNLIVTVKPANQRNNVVRGASGRLTGPPSAGPGPAEPDSDDDSSDLVIENRQPPSSNGLSQGPPCWDLHPGCRHPGTRSSLPSLDDQEQASSGWGSRIRGDGSGFSL
chain 2: not shown

Here are results for one variant from PMC6224091 (2018).

This assay covers variants of B1. Kind of assay: co-immunoprecipitation (IP: GFP), quantified blot; HEK293T cells; HA-Cdc42(G12V) recovered in the GFP (YFP-Tuba) IP when co-expressed with the Par6A variant; n = 4; parent: 1; read off a plot.
As to chain 1 I133A, chain 1 S134A, the ratio to parent was around 0.21.
